From patent publication US20190233528A1 (published 2019)

Tests used:
[1] = target: T1, recombinant human CD70 (AviTag, polyhistidine tag and chicken tenascin trimerization domain fused to the … (chicken; human, UniProt P10039 110-139, limits assumed); assay: SPR (Biacore 8K, 37 C): CD70 captured via anti-AviTag antibody on C1 chip, scFv-Fc as analyte; 1:1 Langmuir fit
T1 construct: domain: trimerization domain; Expressed in Expi293, purified by IMAC and SEC; Copies 3 is inferred from the trimerization domain; not shown: AviTag; polyhistidine tag
T1 sequence: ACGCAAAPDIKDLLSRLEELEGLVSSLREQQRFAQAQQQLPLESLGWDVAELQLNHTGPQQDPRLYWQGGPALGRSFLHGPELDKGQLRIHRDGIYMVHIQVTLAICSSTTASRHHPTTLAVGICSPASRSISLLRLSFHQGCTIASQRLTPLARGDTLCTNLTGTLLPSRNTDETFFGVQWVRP
Procedure: The antibody binding kinetics were determined by surface plasmon resonance (Biacore 8K, GE Healthcare Bio-Sciences, Pittsburgh Pa.) at 37° C. in HBS-T+ (0.01 M HEPES pH 7.4, 0.15 M NaCl, 0.05% v/v Tween20, 1 mg/mL BSA). Recombinant human CD70 diluted in HBS-T+ was captured on a C1 chip immobilized with an anti-AviTag™ antibody. Purified anti-CD70 scFv-Fc fusions were serially diluted into HBS-T+, injected at 30 uL/min for 2-4 min, dissociation monitored for 10 min then the surface regenerated with 75 mM phosphoric acid between injections. Buffer cycles were collected for each anti-CD70 scFv-Fc fusion for double-referencing purposes (double-referencing as described in Myszka, D. G. Improving biosensor analysis. J. Mol. Recognit. 12, 279-284 (1999)). Kinetic association rates (kₒₙ) and dissociation rates (koff) were obtained simultaneously by fitting the double-referenced sensorgrams globally to a 1:1 Langmuir with mass transport model using Biacore 8K Evaluation Software (GE Healthcare Bio-Sciences, Pittsburgh Pa.) then used to calculate an equilibrium dissociation constant (KD) from the kinetic rate constants (KD=koff/kₒₙ). The data was fit to a 1:1 steady state affinity model using Biacore 8K Evaluation Software to determine a steady state equilibrium dissociation constant (SS KD) as needed.

[2] = target: T2, human CD70 expressed on parental (WT) Jurkat cells (human, UniProt P32970 1-193); assay: cell-based or functional assay
T2 sequence: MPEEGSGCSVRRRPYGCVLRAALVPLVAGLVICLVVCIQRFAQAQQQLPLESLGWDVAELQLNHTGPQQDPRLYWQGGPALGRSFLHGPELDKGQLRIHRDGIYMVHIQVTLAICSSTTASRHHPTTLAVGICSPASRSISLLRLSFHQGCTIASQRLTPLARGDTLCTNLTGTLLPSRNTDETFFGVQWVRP

[3] = target: T3, recombinant biotinylated human CD70 protein (human, UniProt P32970 39-193, biotinylated (site not stated)); assay: flow cytometry: CAR-transduced Jurkat cells incubated with recombinant biotinylated human CD70, streptavidin-PE; percent of cells binding
T3 construct: also called recombinant biotinylated hCD70 protein
T3 sequence: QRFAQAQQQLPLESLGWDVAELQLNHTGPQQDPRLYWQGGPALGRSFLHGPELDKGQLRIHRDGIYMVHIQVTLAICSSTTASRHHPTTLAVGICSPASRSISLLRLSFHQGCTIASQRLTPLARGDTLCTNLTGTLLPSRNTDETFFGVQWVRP
Procedure: On Day 5, transduced cells were stained with human anti-CD69 antibody conjugated to PE-Cy7 and acquired on a flow cytometer to obtain percentage of CD69+ population for each CAR. […] Activation ratios (WT activation/KO activation) and protein binding were used to rank CARs.
Table 7: Activation ratio and protein binding of phage CARs were determined in the Jurkat screen. Activation ratio was used for in vitro characterization of CARs. Activation ratio was determined by calculating the ratio of the percentage of CD69 expression on WT Jurkat cells transduced with CD70 CAR (WT) to that on CD70 knockout Jurkat cells transduced with CD70 CAR (KO). A higher activation ratio indicates target-dependent activation. […] Protein binding values indicate the percentage of CD3+ CAR T cells that bind to human CD70 protein.

B1: P12F02 anti-CD70 scFv-Fc fusion (Fc fusion)
chain: EVQLLESGGGLVQPGGSLRLSCAASGFTFSSYAMSWVRQAPGKGLEWVSTISGTGGTTYYADSVKGRFTISRDNSKNTLYLQMNSLRAEDTAVYYCAKVRAGIDPTASDVWGQGTLVTVSSGGGGSGGGGSGGGGSGGGGSELQSVLTQPPSASGTPGQRVTISCSGSTSNIGRNYVYWYQQLPGTAPKLLIYRTNQRPSGVPDRFSGSKSGTSASLAISGLRSEDEADYYCAAWDDSLSGRVFGTGTKLTVL
notes: scFv-Fc expressed in Expi293; not shown: part of the hinge and Fc from a modified human IgG2
[1]
  Kd: 5.7 nM
  koff: 0.00155 s⁻¹
  kon: 275000 M⁻¹ s⁻¹
  t1/2: 7.4 min

B2: P08E02 CD70-specific CAR (other)
chain: EVQLVQSGAEVKKPGESLKISCKGSGYSFTSSWIGWVRQMPGKGLEWMGIIYPGDSDTRYSPSFQGQVTISADKSISTAYLQWSSLKASDTAMYYCAKGLSQAMTGFGFDYWGQGTLVTVSSGGGGSGGGGSGGGGSGGGGSELDIQMTQSPSSLSASVGDRVTITCRASQSISRYLNWYQQKPGKAPKLLIYAASILQTGVPSRFSGSGSGTDFTLTISSLQPEDFATYYCQQSYSTTMWTFGQGTKVEIKTTTPAPRPPTPAPTIASQPLSLRPEACRPAAGGAVHTRGLDFACDIYIWAPLAGTCGVLLLSLVITLYCKRGRKKLLYIFKQPFMRPVQTTQEEDGCSCRFPEEEEGGCELRVKFSRSADAPAYQQGQNQLYNELNLGRREEYDVLDKRRGRDPEMGGKPRRKNPQEGLYNELQKDKMAEAYSEIGMKGERRRGKGHDGLYQGLSTATKDTYDALHMQALPPR
notes: Chimeric antigen receptor on transduced Jurkat cells; the signal peptide is left out
[2]
  Activation ratio (WT/KO): 3.29
[3]
  Protein binding (%): 57.1%

B3: P08F08 CD70-specific CAR (other)
chain: EVQLVQSGAEVKKPGESLKISCKGSGYGFTSYWIGWVRQMPGKGLEWMGIIHPDDSDTKYSPSFQGQVTISADKSISTAYLQWSSLKASDTAMYYCASSYLRGLWGGYFDYWGQGTLVTVSSGGGGSGGGGSGGGGSGGGGSELQSVLTQPPSASGTPGQRVTISCSGSSSNIGSNYVNWYQQLPGTAPKLLIYGDYQRPSGVPDRFSGSKSGTSASLAISGLRSEDEADYYCATRDDSLSGSVVFGTGTKLTVLTTTPAPRPPTPAPTIASQPLSLRPEACRPAAGGAVHTRGLDFACDIYIWAPLAGTCGVLLLSLVITLYCKRGRKKLLYIFKQPFMRPVQTTQEEDGCSCRFPEEEEGGCELRVKFSRSADAPAYQQGQNQLYNELNLGRREEYDVLDKRRGRDPEMGGKPRRKNPQEGLYNELQKDKMAEAYSEIGMKGERRRGKGHDGLYQGLSTATKDTYDALHMQALPPR
notes: as for B2
[2]
  Activation ratio (WT/KO): 3.42
[3]
  Protein binding (%): 35.9%

B4: P08A02 CD70-specific CAR (other)
chain: EVQLVQSGAEVKKPGESLKISCKGSGYTFTNYWIAWVRQMPGKGLEWMGIIYPDGSDTRYSPSFQGQVTISADKSISTAYLQWSSLKASDTAMYYCARDITSWYYGEPAFDIWGQGTLVTVSSGGGGSGGGGSGGGGSGGGGSELQSVLTQPPSASGTPGQRVTISCSGSSSNIGSNYVYWYQQLPGTAPKLLIYRNNQRPSGVPDRFSGSKSGTSASLAISGLRSEDEADYYCATWDDSLGSPVFGTGTKLTVLTTTPAPRPPTPAPTIASQPLSLRPEACRPAAGGAVHTRGLDFACDIYIWAPLAGTCGVLLLSLVITLYCKRGRKKLLYIFKQPFMRPVQTTQEEDGCSCRFPEEEEGGCELRVKFSRSADAPAYQQGQNQLYNELNLGRREEYDVLDKRRGRDPEMGGKPRRKNPQEGLYNELQKDKMAEAYSEIGMKGERRRGKGHDGLYQGLSTATKDTYDALHMQALPPR
notes: as for B2
[2]
  Activation ratio (WT/KO): 14.4
[3]
  Protein binding (%): 20.7%

B5: P12B09 CD70-specific CAR (other)
chain: EVQLLESGGGLVQPGGSLRLSCAASGFTFSQYSMSWVRQAPGKGLEWVSAISGGGVSTYYADSVKGRFTISRDNSKNTLYLQMNSLRAEDTAVYYCASDISDSGGSHWYFDYWGQGTLVTVSSGGGGSGGGGSGGGGSGGGGSELDIQMTQSPSSLSASVGDRVTITCRASQYIGRYLNWYQQKRGKAPKLLIHGATSLASGVPSRFSGSGSGTDFTLTISSLQPEDFATYYCQQSYSTTSPTFGQGTKVEIKTTTPAPRPPTPAPTIASQPLSLRPEACRPAAGGAVHTRGLDFACDIYIWAPLAGTCGVLLLSLVITLYCKRGRKKLLYIFKQPFMRPVQTTQEEDGCSCRFPEEEEGGCELRVKFSRSADAPAYQQGQNQLYNELNLGRREEYDVLDKRRGRDPEMGGKPRRKNPQEGLYNELQKDKMAEAYSEIGMKGERRRGKGHDGLYQGLSTATKDTYDALHMQALPPR
notes: as for B2
[2]
  Activation ratio (WT/KO): 4.34
[3]
  Protein binding (%): 5.74%

B6: P02B10 CD70-specific CAR (other)
chain: EVQLLESGGGLVQPGGSLRLSCAASGFAFSNYAMSWVRQAPGKGLEWVSAIRGGGGSTYYADSVKGRFTISRDNSKNTLYLQMNSLRAEDTAVYYCARDFISGTWYPDYWGQGTLVTVSSGGGGSGGGGSGGGGSGGGGSELQSVLTQPPSASGTPGQRVTISCSGSSSNIGSNYVYWYQQLPGTAPKLLIYRNNQRPSGVPDRFSGSKSGTSASLAISGLRSEDEADYYCAAWDDSLSGVVFGGGTKLTVLTTTPAPRPPTPAPTIASQPLSLRPEACRPAAGGAVHTRGLDFACDIYIWAPLAGTCGVLLLSLVITLYCKRGRKKLLYIFKQPFMRPVQTTQEEDGCSCRFPEEEEGGCELRVKFSRSADAPAYQQGQNQLYNELNLGRREEYDVLDKRRGRDPEMGGKPRRKNPQEGLYNELQKDKMAEAYSEIGMKGERRRGKGHDGLYQGLSTATKDTYDALHMQALPPR
notes: as for B2
[2]
  Activation ratio (WT/KO): 2.81
[3]
  Protein binding (%): 77.9%

B7: P08G02 CD70-specific CAR (other)
chain: EVQLVQSGAEVKKPGESLKISCKGSGYTFPSSWIGWVRQMPGKGLEWMGIIYPDTSHTRYSPSFQGQVTISADKSISTAYLQWSSLKASDTAMYYCARASYFDRGTGYSSWWMDVWGQGTLVTVSSGGGGSGGGGSGGGGSGGGGSELDIQMTQSPSSLSASVGDRVTITCRASQSIYDYLHWYQQKPGKAPKLLIYDASNLQSGVPSRFSGSGSGTDFTLTISSLQPEDFATYYCQQSYTTPLFTFGQGTKVEIKTTTPAPRPPTPAPTIASQPLSLRPEACRPAAGGAVHTRGLDFACDIYIWAPLAGTCGVLLLSLVITLYCKRGRKKLLYIFKQPFMRPVQTTQEEDGCSCRFPEEEEGGCELRVKFSRSADAPAYQQGQNQLYNELNLGRREEYDVLDKRRGRDPEMGGKPRRKNPQEGLYNELQKDKMAEAYSEIGMKGERRRGKGHDGLYQGLSTATKDTYDALHMQALPPR
notes: as for B2
[2]
  Activation ratio (WT/KO): 2.11
[3]
  Protein binding (%): 77.8%

B8: P13F04 anti-CD70 scFv-Fc fusion (Fc fusion)
chain: QVQLVQSGAEVKKPGSSVKVSCKASGGTFSSYAISWVRQAPGQGLEWMGEIIPIFGTASYAQKFQGRVTITADESTSTAYMELSSLRSEDTAVYYCARAGWDDSWFDYWGQGTLVTVSSGGGGSGGGGSGGGGSGGGGSELQSVLTQPPSASGTPGQRVTISCSGSNSNIGTNYVSWYQQLPGTAPKLLIYRSSRRPSGVPDRFSGSKSGTSASLAISGLRSEDEADYYCAAWDGSLSGHWVFGTGTKLTVL
notes: as for B1
[1]
  Kd: 205 nM
  koff: 0.02 s⁻¹
  kon: 97700 M⁻¹ s⁻¹
  t1/2: 0.6 min

B9: P07D03 CD70-specific CAR (other)
chain: EVQLVQSGAEVKKPGESLKISCKGSGYRFTSYWIGWVRQMPGKGLEWMGSIYPDDSDTRYSPSFQGQVTISADKSISTAYLQWSSLKASDTAMYYCASSTVDYPGYSYFDYWGQGTLVTVSSGGGGSGGGGSGGGGSGGGGSELQSVLTQPPSASGTPGQRVTISCSGSRSNIGSNYVYWYQQLPGTAPKLLIYRNNQRPSGVPDRFSGSKSGTSASLAISGLRSEDEADYYCASWDGSLSAVVFGTGTKLTVLTTTPAPRPPTPAPTIASQPLSLRPEACRPAAGGAVHTRGLDFACDIYIWAPLAGTCGVLLLSLVITLYCKRGRKKLLYIFKQPFMRPVQTTQEEDGCSCRFPEEEEGGCELRVKFSRSADAPAYQQGQNQLYNELNLGRREEYDVLDKRRGRDPEMGGKPRRKNPQEGLYNELQKDKMAEAYSEIGMKGERRRGKGHDGLYQGLSTATKDTYDALHMQALPPR
notes: as for B2
[2]
  Activation ratio (WT/KO): 3.04
[3]
  Protein binding (%): 0.68%
